From US20200200749A1 (published 2020) come the findings set out here.

Holding throughout (assay): ELISA
(In general: ELISA stands for enzyme-linked immunosorbent assay.)

The target in test [1] is MARV GP.
The target in test [2] is T1, BDBV GP (BDBV (Bundibugyo ebolavirus)).
The next test has as its target T2, SUDV GP (recombinant) (SUDV (Sudan ebolavirus), UniProt Q66814 33-650).
T2 chain: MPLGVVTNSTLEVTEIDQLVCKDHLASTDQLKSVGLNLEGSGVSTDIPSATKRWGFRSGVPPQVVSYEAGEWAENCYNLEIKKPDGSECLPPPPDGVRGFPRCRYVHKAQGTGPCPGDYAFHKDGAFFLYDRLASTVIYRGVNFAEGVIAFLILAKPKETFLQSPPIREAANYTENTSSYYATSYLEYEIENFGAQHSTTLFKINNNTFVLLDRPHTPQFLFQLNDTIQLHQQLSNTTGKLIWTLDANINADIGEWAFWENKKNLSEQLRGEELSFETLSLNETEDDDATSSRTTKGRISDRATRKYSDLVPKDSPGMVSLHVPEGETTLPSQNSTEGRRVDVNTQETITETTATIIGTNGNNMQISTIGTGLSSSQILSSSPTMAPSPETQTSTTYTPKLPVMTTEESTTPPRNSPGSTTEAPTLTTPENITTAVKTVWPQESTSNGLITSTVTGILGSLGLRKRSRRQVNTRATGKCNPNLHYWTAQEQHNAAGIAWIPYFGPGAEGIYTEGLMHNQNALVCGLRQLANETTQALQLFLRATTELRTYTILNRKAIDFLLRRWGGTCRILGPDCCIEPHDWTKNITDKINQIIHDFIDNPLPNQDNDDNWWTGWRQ

Test [3] deals with T3, EBOV GP (recombinant, full-length extracellular domain) (EBOV (Ebola Zaire), UniProt Q05320 33-650).
T3 chain: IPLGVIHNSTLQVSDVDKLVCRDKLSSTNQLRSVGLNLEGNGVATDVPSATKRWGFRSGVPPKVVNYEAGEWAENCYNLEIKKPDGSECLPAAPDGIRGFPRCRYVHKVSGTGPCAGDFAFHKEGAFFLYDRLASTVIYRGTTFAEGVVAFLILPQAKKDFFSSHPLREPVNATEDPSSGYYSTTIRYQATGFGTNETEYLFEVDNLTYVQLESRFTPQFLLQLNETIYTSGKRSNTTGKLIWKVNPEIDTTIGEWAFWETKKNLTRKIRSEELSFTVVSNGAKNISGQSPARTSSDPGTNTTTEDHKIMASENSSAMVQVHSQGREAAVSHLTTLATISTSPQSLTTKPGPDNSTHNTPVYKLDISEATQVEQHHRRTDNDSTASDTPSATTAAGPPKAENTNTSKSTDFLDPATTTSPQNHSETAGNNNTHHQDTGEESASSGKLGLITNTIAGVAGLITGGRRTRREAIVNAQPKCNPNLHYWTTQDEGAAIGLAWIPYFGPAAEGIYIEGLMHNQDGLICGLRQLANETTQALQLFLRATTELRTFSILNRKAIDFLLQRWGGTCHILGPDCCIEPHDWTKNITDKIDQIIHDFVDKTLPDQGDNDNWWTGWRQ

Another test concerns the target T4, EBOV sGP (EBOV (Ebola Zaire), UniProt P60170 33-324).
T4 chain: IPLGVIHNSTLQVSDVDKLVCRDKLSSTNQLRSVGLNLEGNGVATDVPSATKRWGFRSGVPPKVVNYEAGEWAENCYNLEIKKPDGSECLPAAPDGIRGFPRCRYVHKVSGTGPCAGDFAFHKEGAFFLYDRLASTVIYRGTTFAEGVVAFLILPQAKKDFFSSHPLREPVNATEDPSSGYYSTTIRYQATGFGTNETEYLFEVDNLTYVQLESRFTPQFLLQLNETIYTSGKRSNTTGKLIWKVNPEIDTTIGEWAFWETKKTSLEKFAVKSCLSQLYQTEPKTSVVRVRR

A further test deals with BDBV sGP (BDBV (Bundibugyo ebolavirus)).
For test [4], the target named is MARV GP. This is another data set of the same source.
Test [5] has as its target T1, BDBV GP. This is another data set of the same source.

Where two headings read alike, the source gives them in different places.

B1: 87 (antibody, V domains shown)
VH: QVQLVQSGAEVKRPGASVKVSCKASGYTFTSYAISWVRQAPGQGLEWMGWISGNNGNTNYAQKLQGRLTMTTDTSTSTAYMELRSLRSDDTAVYYCARDADIVVVVGATGTYYYGMDVWGQGTLVTVSS
VL: DIVMTQSPSTLSASVGDRVTITCRASQSISSWLAWYQQKPGKAPKLLIYDASSLESGVPSRFSGSGSGTEFTLTISSLQPDDFATYYCQQYKSSLRTFGQGTQLEIK
A word on the EC50: it is the concentration that produces a half-maximal response. In the case of B1, the values for the EC50 with MARV GP [1] and in the test with BDBV GP [2] were more than 10 µg/mL and 1.39 µg/mL, respectively.

B2: EBOV87 (antibody, V domains shown)
VH: B1 VH
VL: B1 VL
B2: the EC50 in the test with SUDV GP (recombinant) came out at 0.629 µg/mL; in test [3], 0.724 µg/mL; in the test with EBOV sGP it was 0.051 µg/mL.

B3: 324 (antibody, V domains shown)
VH: QVQLVQSGAEVKKPGASVKVSCKTSGYTFTSFEIHWVRQGSGQGLEWMGRMNPKSGDTVSAQKFQGRVTLTRDTSINAAYMELGSLSSEDTAVYYCARGPHVGEVVPGLMAGTYYFPLDVWGQGTLVTVSS
VL: DIQMTQSPSTLSASIGDRVTITCRASQSISRWLAWYQQKPGKAPKLLIYKVSDLQSGVPSRFSGSGYGTEFTLTIGSLQPDDLATYYCQQYDTYPWTFGQGTKLEIK
On to B3, for which the EC50 is 0.012 µg/mL in the test with BDBV sGP, more than 10 µg/mL with MARV GP [4] and 0.053 µg/mL in the test with BDBV GP [5].

B4: EBOV62 (antibody, V domains shown)
VH: EVQLVESGGGLVQPGGSLRLSCAASGFTFSSYWMSWVRQAPGKGLEWVANIKQDGSAKYYVDSVKGRFTISRDNAKNSLYLQMNSLRAEDTAVYYCARDGLLGISDLLYPIYYFDYWGQGTLVTVSS
VL: DIVMTQSPSSLSASVGDRVTITCRASQNIGSYLNWYQQKPGKAPNLLMYAASSLQSGVPSRFSGSGSGTDFTLTITSLQPEDFATYYCQQSYSIPRTFGQGTQLEIK
For the molecule B4, the EC50 with SUDV GP (recombinant) was more than 10 µg/mL; in test [3], 0.228 µg/mL; with EBOV sGP, 0.051 µg/mL.

B5: 62 (antibody, V domains shown)
VH: B4 VH
VL: B4 VL
Take B5: the EC50 is more than 10 µg/mL with MARV GP [1] and 0.508 µg/mL with BDBV GP [2].

B6: EBOV63 (antibody, V domains shown)
VH: EVQLVESGGGLVKPGGSLRLSCAASGFTLNFYNMNWVRQAPGKGLEWVSSISSSSNYIYYADSVKGRFTISRDNARKSLYLQMNSLRAEDTAVYYCARDFVQLLIPQRDEWQGVHDYYGMDVWGQGTLVTVSS
VL: EIVLTQSPGTLSLSPGGRATLSCRASQSVSNSYLAWYQQKPGQAPRLLIYGASSRATGIPDRFSGSGSGTDFILTISRLEPEDFAVYYCQHYGSSQLTFGGGTKVEIK
Turning to B6, the EC50 in the test with SUDV GP (recombinant) is more than 10 µg/mL; in test [3], 0.283 µg/mL; in the test with EBOV sGP, 0.038 µg/mL.

B7: 63 (antibody, V domains shown)
VH: B6 VH
VL: B6 VL
On to B7, for which the EC50 with MARV GP [1] and in the test with BDBV GP [2] was more than 10 µg/mL throughout.

B8: 289 (antibody, V domains shown)
VH: QVQLVQSGAEVKKPGSSVKVSCKASGATFGSDTVTWVRQAPGQGLEWMGGIIPFFGEANYAQRFQGRVTITADKSTNTAYMELSSLRSEDTAVYFCARQINEMATFGEIHYYTYMDVWGQGTLVTVSS
VL: GSELTQDPAVSVALGQTVRITCQGDSLRNYYASWYQQKPRQAPVLVFYGKNNRPSGIPDRFSGSSSGNTASLTISGAQAEDEADYYCNSRDSSSNHLVFGGGTKLTVLS
For B8, the EC50 was 0.006 µg/mL with BDBV sGP, more than 10 µg/mL with MARV GP [4] and 0.02 µg/mL with BDBV GP [5].

B9: 49 (antibody, V domains shown)
VH: EVQLVESGGGLVQPGGSLRLSCAASGFTFSSYEINWVRQAPGRGLEWVSYISSSGRTIYYADSVKGRFTISRDNAKNSLYLQMNSLRAEDTAVYYCAREPYVDGILYGAGDSYFDYWGQGTLVTVSS
VL: DIQMTQSPSSLSASVGDRVTITCRASQSISNYLNWYQQKPGKAPKVLIYAASSLQSGVSSRFSGSGSGTDFTLTISSLQPEDFATYFCQQSYNTPPVTFGQGTRLEIK
Turning to B9, the EC50 with MARV GP [1] and with BDBV GP [2] was more than 10 µg/mL throughout.

B10: EBOV49 (antibody, V domains shown)
VH: B9 VH
VL: B9 VL
As for B10, the EC50 with SUDV GP (recombinant) was more than 10 µg/mL; in test [3], 0.262 µg/mL; with EBOV sGP it was 0.061 µg/mL.

B11: 52 (antibody, V domains shown)
VH: QVQLQESGPGLVKPSETLSLNCTVSGGSISSYYWSWIRQPPGKGLEWIGYIYDSGRTKYNPSLKSRVTISLDTSKNQFSLKLSSVTAADTAVYYCASLGPFDKLWFGELLPGWFDPWGQGTLVTVSS
VL: EIVLTQSPATLSLSPGGRATLSCRASQSVHNYLAWYQQKSGQAPRLLIYDASNRATGIPARFSGSGSGTDFTLTISSLEPDDFAVYYCQHRSNWLTFGGGTKVEIK
For B11, the EC50 in the test with MARV GP [1] was more than 10 µg/mL; in the test with BDBV GP [2] it was 1.84 µg/mL.

B12: EBOV52 (antibody, V domains shown)
VH: B11 VH
VL: B11 VL
On to B12, for which the EC50 with SUDV GP (recombinant) was more than 10 µg/mL; in test [3] it was 0.712 µg/mL; in the test with EBOV sGP, 0.082 µg/mL.

B13: 270 (antibody, V domains shown)
VH: QVQLQESGPGLVKPSQTLSLTCTVSGASISRGLYYWSWIRQPAGKGLEWIGRIYTSGSINYNPSLKSRVTISVDTSKNQFSLRLSSVIATDTAVYYCVRDAPWGDFLTGYFGFYGMDVWGQGTLVTVSS
VL: DIVMTQSPSSLSASVGDRVTITCRASQSINTYLNWYQQKPGKAPKFLIYAASSLHSGVPSRFSGSGSGTDFTLTINSLQPDDFATYYCQQSFTTPYTFGQGTKLEIK
As for B13, the EC50 is 0.025 µg/mL in the test with BDBV sGP, more than 10 µg/mL with MARV GP [4] and 0.154 µg/mL with BDBV GP [5].
